Measurements as given in patent US9387267B2, “Iodine-containing radial-shaped macromolecular compounds, preparation method thereof and contrast media compositions for CT comprising the same” (KOREA RESEARCH INSTITUTE OF BIOSCIENCE AND BIOTECHNOLOGY, priority 2010, dated 2016).
Like-named read-outs stand apart in the source and are kept apart here.

What was measured:
C57BL/6 mice = assay: In vivo micro-CT imaging evaluation
Experimental: Specifically, 6 to 8 weeks old healthy male C57BL/6 mice (Orient Bio, Korea) having the weight typically ranging from 15 g to 22 g were used as small animals. Each mouse was not fed water and food starting from approximately 12 hours before the injection of the contrast medium until the completion of CT imaging at 4 hours post-injection. The mice were fed water and food immediately after the completion of CT imaging at 4 hours post-injection. Before the injection of the contrast media, each mouse was anaesthetized in an induction chamber by administering 3% isoflurane in oxygen for about 5 minutes. Subsequently, the mouse was placed onto the imaging bed of a NFR Polaris-G90 in vivo micro-CT scanner (NanoFocusRay, Korea) lying in a prone position, and then the baseline (i.e., pre-contrast) scan was performed as a negative control group while being anesthesized by administering 1.5% isoflurane in oxygen [imaging parameters: 60 kVp, 60 μA, 500 ms exposure time, 360° scan angle, 600 scan number, 512 slices (i.e., image number); FOV: 80.00×83.71 mm^2 for low resolution whole-body imaging (1.4× magnification), 33.94×35.52 mm^2 for mid resolution chest and abdominal imaging (3.3× magnification), and 26.67×27.90 mm^2 for high resolution brain imaging (4.2× magnification)]. Next, the tail vein of the mouse was expanded by immersing the tail in a warm water for about 30 to 60 seconds while maintaining the mouse under anesthesia by administering 1.5% isoflurane in oxygen, and the corresponding amount of each contrast medium (15 mL/kg for the contrast media including the compounds of Examples 1 to 4, 10 mL/kg for “Fenestra VC”, and 2.5 mL/kg for “Iobrix”) was slowly injected into the tail vein of each mouse. Immediately after the injection of the contrast medium, the mouse was placed onto the imaging bed of a micro-CT scanner lying in a prone position, and the CT scan was performed at the corresponding resolution (low, mid, or high) while being anesthesized by administering 1.5% isoflurane in oxygen. […]

[1] = Micro-CT 2D X-ray snapshot imaging of contrast media solutions in tubes
Experimental: Prior to the in vivo injection of CT contrast media (250 mg/mL) including Compounds 1c, 2c, 3c, or 4c of Examples 1 to 4 prepared in the Preparation Step, 2D X-ray snapshot images of these solutions and two commercially available CT contrast media each for human or animal application were obtained using micro-CT to compare their relative X-ray absorption in tubes under the same conditions as a preliminary evaluation.
Overall, eight 250 μL-tubes were prepared each containing the following: 250 μL each of four CT contrast media prepared in the Preparation Step, 250 μL of “Fenestra VC”, 250 μL of “Iobrix”, 250 μL of 20 mM Tris buffer solution (pH 7.4, 0.1 mg/mL EDTA included) as a negative control group, and one empty tube as a negative control group. These eight tubes were then arranged side by side in parallel on the imaging bed of a NFR Polaris-G90 in vivo micro-CT scanner (manufacturer: NanoFocusRay), and 2D X-ray snapshot images were taken [imaging parameters: 60 kVp, 60 μA, 500 ms exposure time, field of view (FOV) 80.00×83.71 mm^2, 1.4× magnification].

[2] = type: physicochemical
Experimental: (§1) Sample solutions for in vivo injections as CT contrast agents were prepared by dissolving each PAMAM-PEG2000-TIPAA conjugate (Compound 1c, 2c, 3c, or 4c) at 250 mg/mL in the sterilized 20 mM Tris buffer (242 mg tromethamine and 10 mg EDTA dissolved in 100 mL of deionized water (Millipore Milli-Q), pH 7.4). The resulting solution was sonicated briefly to ensure homogeneity and stored at 4° C., if not used immediately. Before the injection to the animal, the contrast agent solutions were removed from the fridge, warmed to room temperature, and agitated by vortex.
The results of the viscosity (30° C.) and osmolality measurements of the CT contrast media solutions of the present invention are summarized in the following Table 1.
In Table 1, the values are presented as the mean±standard deviation. Five independent measurements were made for each compound under the same conditions, and the mean and standard deviation were calculated after excluding the highest and lowest values (i.e., 3 data).

[3] = test system: Human epithelial cervical cancer (HeLa) cell line; type: cell-based; conditions: HeLa cells
Experimental: Human epithelial cervical cancer (HeLa) cell line was obtained from American Type Culture Collection (ATCC, Manassas, Va.) and maintained at 37° C. under a 5% carbon dioxide (CO2) atmosphere in Dulbecco's modified eagle medium (DMEM, Gibco) supplemented with 10% fetal bovine serum (FBS), 50 U/mL penicillin, and 50 μg/mL streptomycin. Stock solutions of PAMAM-PEG2000-TIPAA conjugate Compounds 1c-4c were prepared by dissolving 10 mg of each vacuum-dried solid sample in 1.0 mL of deionized water (Millipore Milli-Q) to make a 10 mg/mL solution. Each stock solution was sonicated briefly to ensure homogeneity. Serial dilutions were carried out using serum-free DMEM to prepare samples of the following concentrations: 1, 5, 10, 50, 100, and 500 μg/mL. HeLa cells were seeded in a flat bottomed 96-well plate (Corning Costar, Cambridge, Mass.) at a density of 1×10^3 cells per well and incubated for 24 hours at 37° C. under a 5% CO2 atmosphere to allow cell attachment. Cells were treated with 100 μL of each dilution or 100 μL of serum-free DMEM (as a control) per well and incubated at 37° C. under a 5% CO2 atmosphere for 24, 48, or 72 hours. The formulations were replaced with serum-free DMEM containing 5 mg/mL 3-(4,5-dimethylthiazol-2-yl)-2,5-diphenyltetrazolium bromide (MTT) and cells were incubated for additional 4 hours. MTT was removed by aspiration and DMSO (100 μL) was added to each well to dissolve the formazan crystals [Mosmann, T., J. Immunol. Methods 1983, 65, 55-63]. Assays were carried out in quadruplicates.

[4] = Dissolving the compound in buffer solution for a contrast medium; type: physicochemical; conditions: concentration appropriate for CT imaging
Experimental: as §1

[5] = 250 μL in tube, 2D X-ray snapshot, 60 kVp, 60 μA, own media 250 mg/mL
[6] = 250 mg/mL in 20 mM Tris buffer pH 7.4, mean±standard deviation
[7] = 30° C., 250 mg/mL in 20 mM Tris buffer pH 7.4, mean±standard deviation
[8] = incubated for 72 hours, 500 μg/mL, MTT

Substance	amount found in the kidney (C57BL/6 mice; mice, images at 1 hour after injection)	excretion (route and rate) (C57BL/6 mice; mice, tail vein injection, whole-body CT images)	X-ray transmission intensity [1, 5]	Osmolality [2, 6] [mOsm/kg]	Viscosity [2, 7] [mPa · s]	cell survival rate [3, 8] [%]	X-ray transmission intensity [1]	Osmolality ([2]; pH 7.4) [mOsm/kg]	Viscosity ([2]; pH 7.4) [mPa · s]	cell survival rate ([3]; human, 72 h, 500 µg/mL) [%]	thickness of contrast medium solution felt during the injection (C57BL/6 mice; during injection)	ease of dissolving in a buffer solution [4]
G1 PAMAM-mPEG2000-TIPAA Conjugate [Example 1]	a considerable amount thereof was found in the kidney within a relatively short period of time	mostly through kidney to bladder	904.5	464.75 ± 3.59	15.32 ± 0.39	88.5						
G2 PAMAM-mPEG2000-TIPAA Conjugate [Example 2]							838.0	233.50 ± 9.75	16.47 ± 0.80	88.4		
G3 PAMAM-mPEG2000-TIPAA Conjugate [Example 3]							826.5	225.75 ± 1.26	16.15 ± 0.53	88.4		
G4 PAMAM-mPEG2000-TIPAA Conjugate [Example 4]			827.0	242.00 ± 4.08	16.31 ± 0.61	87.9					felt thicker than Compound 2c of Example 2 or Compound 3c of Example 3	more difficult to dissolve
